Values joined by “and” are separate entries in the source; they are usually repeats but may differ in a detail not shown here. Identical values can stand only once.
B1: anti-CD40L stefin A protein variant XT75 (SEQ ID NO: 105), secreted by gene-introduced MSC (eMSC) (designed binder)
chain: IPGGLSEAKPATPEIQEIVDKVKPQLEEKTGETYGKLEAVQYKTQVVHYYVHYNDQGTNYYIKVRAGDNKYMHLKVFKSLWGENLFAKWEDLVLTGYQVDKNKDDELTGFAEAAAKEAAAKEAAAKEAAAKEAAAKEAAAKMIPGGLSEAKPATPEIQEIVDKVKPQLEEKTGETYGKLEAVQYKTQVVHYYVHYNDQGTNYYIKVRAGDNKYMHLKVFKSLWGENLFAKWEDLVLTGYQVDKNKDDELTGFAEAAAKEAAAKEAAAKEAAAKEAAAKEAAAKMIPGGLSEAKPATPEIQEIVDKVKPQLEEKTGETYGKLEAVQYKTQVVHYYVHYNDQGTNYYIKVRAGDNKYMHLKVFKSLWGENLFAKWEDLVLTGYQVDKNKDDELTGFAEAAAKEAAAKEAAAKEAAAKEAAAKEAAAKMIPRGLSEAKPATPEIQEIVDKVKPQLEEKTGETYGKLEAVQYKTQVLANFFQRRWPGSTNYYIKVRAGDNKYMHLKVFNGPWKFRNTDRGADRVLTGYQVDKNKDDELTGF
notes: By their DNA these vectors appear to encode a further C-terminal Myc/His tag and a T2A remnant; also called AFX01-230 XT75(C); eMSC (XT75, w/EF1A)
B2: TNFR2-binding stefin A variant CLONE 044 (designed binder)
chain: MIPGGLSEAKPATPEIQEIVDKVKPQLEEKTGETYGKLEAVQYKTQVVLFPEAVYWVGTNYYIKVRAGDNKYMHLKVFKSLIWNDNAAQHEDLVLTGYQVDKNKDDELTGFAAAEQKLISEEDLAAHHHHHH
notes: also called clone 44
B3: TNFR2-binding stefin A variant CLONE 100 (designed binder)
chain: MIPRGLSEAKPATPEIQEIVDKVKPQLEEKTGETYGKLEAVQYKTQVLAQSWDKHYQLRESTNYYIKVRAGDNKYMHLKVFNGPEVPHHAHGVADRVLTGYQVDKNKDDELTGFAAAEQKLISEEDLAAHHHHHH
B4: TNFR2-binding stefin A variant CLONE 001 (designed binder)
chain: MIPGGLSEAKPATPEIQEIVDKVKPQLEEKTGETYGKLEAVQYKTQVVGQDQWGNYAGTNYYIKVRAGDNKYMHLKVFKSLPDIPHNHWHEDLVLTGYQVDKNKDDELTGFAAAEQKLISEEDLAAHHHHHH
notes: also called clone 1
B5: TNFR2-binding stefin A variant CLONE 007 (designed binder)
chain: MIPGGLSEAKPATPEIQEIVDKVKPQLEEKTGETYGKLEAVQYKTQVVGLDIWGNNAGTNYYIKVRAGDNKYMHLKVFKSLADTARTEEAEDLVLTGYQVDKNKDDELTGFAAAEQKLISEEDLAAHHHHHH
notes: also called clone 7
B6: TNFR2-binding stefin A variant CLONE 009 (designed binder)
chain: MIPGGLSEAKPATPEIQEIVDKVKPQLEEKTGETYGKLEAVQYKTQVVRLFHIWRWWGTNYYIKVRAGDNKYMHLKVFKSLIHIYTDSIQEDLVLTGYQVDKNKDDELTGFAAAEQKLISEEDLAAHHHHHH
notes: also called clone 9
B7: TNFR2-binding stefin A variant CLONE 012 (designed binder)
chain: MIPGGLSEAKPATPEIQEIVDKVKPQLEEKTGETYGKLEAVQYKTQVVYWGVQGALDGTNYYIKVRAGDNKYMHLKVFKSLNWNHEFDLVEDLVLTGYQVDKNKDDELTGFAAAEQKLISEEDLAAHHHHHH
notes: also called clone 12
B8: TNFR2-binding stefin A variant CLONE 026 (designed binder)
chain: MIPRGLSEAKPATPEIQEIVDKVKPQLEEKTGETYGKLEAVQYKTQVLALEIPSAIIYSTNYYIKVRAGDNKYMHLKVFNGPYFWGDQEHWADRVLTGYQVDKNKDDELTGFAAAEQKLISEEDLAAHHHHHH
notes: also called clone 26

Columns and labels:
[1] = biological target: T1, recombinant human CD40L (R&D Systems, 6420-CL-025/CF) (human, UniProt P29965 108-261, limits assumed); experiment: binding ELISA (bELISA): plate coated with recombinant human CD40L, 1/3 serial dilutions of concentrated culture fluid, TMB read-out; second-named of the two gene-introduced cell lines (promoter not stated)
T1 construct: Bought protein coated on the ELISA plate
T1 sequence (looked up): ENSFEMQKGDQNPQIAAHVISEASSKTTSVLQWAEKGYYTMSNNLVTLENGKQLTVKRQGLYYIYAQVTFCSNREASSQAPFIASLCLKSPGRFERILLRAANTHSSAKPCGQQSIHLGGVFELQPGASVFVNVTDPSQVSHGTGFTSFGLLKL
Procedure: (§1) Each cell line was inoculated into a T175 flask at a cell density of 4.0×10³ cells/cm² using a culture medium. After culture at 37° C. and 5% CO₂ for 18 to 24 hours, the culture medium was thoroughly replaced with a fresh culture medium every 2 days, followed by culture. After culture for 3 days, the cells were harvested, and 7.0×10⁶ cells were inoculated into a T175 flask, followed by culture at 37° C. and 5% CO₂ for 18 to 24 hours. The culture medium was thoroughly removed, and the remaining medium was completely removed through washing with 10 mL of MEM alpha. 30 mL of an MEM alpha medium was added to a T175 flask, followed by culture for 48 hours. After 48 hours, all of the cell culture fluid was harvested and then centrifuged to remove residual cells and impurities. The cell culture fluid was transferred to a Vivaspin 20 and centrifuged, the culture fluid was concentrated, and the stefin A protein variant was quantified through sandwich ELISA (LSBio, LS-F4620). […] The unbound stefin A protein variant was removed through washing, after which the extent of binding between the stefin A protein variant and CD40L was detected based on a difference in absorbance resulting from reaction with a TMB substrate.

[2] = biological target: T2, human Mega CD40L recombinant protein (Enzo Lifesciences) (human, UniProt P29965 116-261); experiment: cell-based or functional assay
T2 sequence (looked up): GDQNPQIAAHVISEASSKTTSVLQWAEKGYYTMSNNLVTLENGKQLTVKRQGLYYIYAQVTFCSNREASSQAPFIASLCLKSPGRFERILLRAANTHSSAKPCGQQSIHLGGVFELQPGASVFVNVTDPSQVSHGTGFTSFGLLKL

[3] = biological target: T1, recombinant human CD40L (R&D Systems, …); experiment: binding ELISA (bELISA): plate coated with recombinant human CD40L, 1/3 serial dilutions of concentrated culture fluid, TMB read-out; first-named of the two gene-introduced cell lines (promoter not stated)
Procedure: as §1

human TNFR2 = biological target: T3, human TNFR2 (human, UniProt P20333 23-257, limits assumed); experiment: selection of TNFR2-binding stefin A variants; method not described
T3 sequence (looked up): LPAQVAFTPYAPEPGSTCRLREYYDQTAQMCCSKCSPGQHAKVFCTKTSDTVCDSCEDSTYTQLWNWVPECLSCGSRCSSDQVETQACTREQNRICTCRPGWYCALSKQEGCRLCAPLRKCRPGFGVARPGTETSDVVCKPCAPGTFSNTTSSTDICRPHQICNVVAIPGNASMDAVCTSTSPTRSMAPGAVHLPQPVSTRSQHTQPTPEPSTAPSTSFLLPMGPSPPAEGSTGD

| Binder | binding result (human TNFR2) | also measured |
| --- | --- | --- |
| B1 |  | EC50 [1]: 5.3 pM; IC50 for hMega CD40L, HEK-Blue CD40L reporter cell assay (absorbance of HEK-Blue solution) [2]: 303 pM and 400 pM; EC50 [3]: 3.9 pM |
| B2 | binds |  |
| B3 | binds |  |
| B4 | binds |  |
| B5 | binds |  |
| B6 | binds |  |
| B7 | binds |  |
| B8 | binds |  |

Reference: patent publication US20260022343A1 (AFFYXELL THERAPEUTICS, published 2026)
